# From publication PMC7057995, “Structural basis of RNA polymerase I pre-initiation complex formation and promoter melting”
# B1: rDNA promoter -83 to +26 (EMSA; ID 4691/4692) (dsDNA)
# DNA 1: AAAAGTAAGATTTTAGTTTGTAATGGGAGGGGGAATTTAGTCATGGAGTACAAGTGTGAGGAAAAGTAGTTGGGAGGTACTTCATACCAAAGGGGTTCAACACAAGGGT
# DNA 2: ACCCTTGTGTTGAACCCCTTTGGTATGAAGTACCTCCCAACTACTTTTCCTCACACTTGTACTCCATGACTAAATTCCCCCTCCCATTACAAACTAAAATCTTACTTTT
# B2: rDNA promoter -155 to +8 (PIC scaffold; ID 4693/4694) (dsDNA)
# DNA 1: AGCTTAAATTGAAGTTTTTCTCGGCGAGAAATACGTAGTTAAGGCAGAGCGACAGAGAGGGCAAAAGAAAATAAAAGTAAGATTTTAGTTTGTAATGGGAGGGGGGGTTTAGTCATGGAGTACAAGTGTGAGGAAAAGTAGTTGGGAGGTACTTCATGCGAAA
# DNA 2: TTTCGCATGAAGTACCTCCCAACTACTTTTCCTCACACTTGTACTCCATGACTAAACCCCCCCTCCCATTACAAACTAAAATCTTACTTTTATTTTCTTTTGCCCTCTCTGTCGCTCTGCCTTAACTACGTATTTCTCGCCGAGAAAAACTTCAATTTAAGCT
# Key:
# [1] = biological target: CF with Rrn7 Δloop α7-α8 (Saccharomyces cerevisiae, UniProt P32786;P40992;Q04712 1-894;1-286+298-514;1-507, internal_change); assay: EMSA; 0.2 pmol DNA; 0.25-1 pmol CF; binding not impaired; EMSA: 20 mM HEPES/KOH pH 7.8, 10% glycerol, 200 mM KCl, 1 mM MgCl2, 0.1 mg/ml BSA, 1 mM DTT, 30 min, temperature not stated; 6% native gel, 0.5x TBE; settings: protein: recombinant; tags: His (Ni-NTA purified); copies: 1;1;1; label: NTS -3 Atto647N; TS -5 Cy3; blunt
# Sequence of CF with Rrn7 Δloop α7-α8 (P32786 whole entry, stated change not applied, chain 1 of 3): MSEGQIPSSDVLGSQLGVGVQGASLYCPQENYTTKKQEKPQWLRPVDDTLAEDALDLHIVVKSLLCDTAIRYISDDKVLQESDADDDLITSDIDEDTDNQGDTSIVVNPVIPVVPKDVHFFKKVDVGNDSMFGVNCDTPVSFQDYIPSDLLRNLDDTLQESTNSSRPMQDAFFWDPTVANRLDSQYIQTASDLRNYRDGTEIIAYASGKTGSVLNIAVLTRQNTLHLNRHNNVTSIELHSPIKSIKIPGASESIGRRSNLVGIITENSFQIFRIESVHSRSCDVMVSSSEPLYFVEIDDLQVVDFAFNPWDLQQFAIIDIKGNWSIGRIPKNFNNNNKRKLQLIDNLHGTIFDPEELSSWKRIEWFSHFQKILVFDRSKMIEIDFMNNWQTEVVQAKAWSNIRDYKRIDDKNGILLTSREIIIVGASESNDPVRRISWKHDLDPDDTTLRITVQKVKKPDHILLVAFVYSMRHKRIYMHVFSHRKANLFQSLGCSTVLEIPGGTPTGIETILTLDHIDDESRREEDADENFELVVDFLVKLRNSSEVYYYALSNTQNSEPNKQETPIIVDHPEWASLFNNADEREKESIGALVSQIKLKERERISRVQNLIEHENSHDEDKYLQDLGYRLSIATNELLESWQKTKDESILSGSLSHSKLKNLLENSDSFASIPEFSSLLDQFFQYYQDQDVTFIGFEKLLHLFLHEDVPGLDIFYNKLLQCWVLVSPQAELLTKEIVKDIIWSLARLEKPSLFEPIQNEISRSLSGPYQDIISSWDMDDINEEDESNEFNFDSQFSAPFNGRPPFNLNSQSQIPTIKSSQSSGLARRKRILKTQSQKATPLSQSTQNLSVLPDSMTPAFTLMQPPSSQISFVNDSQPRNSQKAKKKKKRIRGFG
# Sequence of CF with Rrn7 Δloop α7-α8 (P40992 other isoform, or with tags, fused parts or gaps | mutant, chain 2 of 3): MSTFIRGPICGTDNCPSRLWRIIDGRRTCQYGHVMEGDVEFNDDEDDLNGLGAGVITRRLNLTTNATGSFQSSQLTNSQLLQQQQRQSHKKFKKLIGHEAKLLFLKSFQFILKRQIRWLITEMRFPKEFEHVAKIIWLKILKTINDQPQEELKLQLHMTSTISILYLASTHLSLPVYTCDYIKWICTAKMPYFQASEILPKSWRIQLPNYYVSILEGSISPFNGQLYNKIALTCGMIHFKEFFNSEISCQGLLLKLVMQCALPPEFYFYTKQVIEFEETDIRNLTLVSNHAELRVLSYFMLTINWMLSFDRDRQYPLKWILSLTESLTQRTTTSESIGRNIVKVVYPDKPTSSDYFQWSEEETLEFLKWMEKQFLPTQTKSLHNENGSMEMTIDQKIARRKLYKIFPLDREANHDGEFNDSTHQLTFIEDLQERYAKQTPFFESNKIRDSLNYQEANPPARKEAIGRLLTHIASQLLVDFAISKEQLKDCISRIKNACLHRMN
# Sequence of CF with Rrn7 Δloop α7-α8 (Q04712 whole entry, stated change not applied, chain 3 of 3): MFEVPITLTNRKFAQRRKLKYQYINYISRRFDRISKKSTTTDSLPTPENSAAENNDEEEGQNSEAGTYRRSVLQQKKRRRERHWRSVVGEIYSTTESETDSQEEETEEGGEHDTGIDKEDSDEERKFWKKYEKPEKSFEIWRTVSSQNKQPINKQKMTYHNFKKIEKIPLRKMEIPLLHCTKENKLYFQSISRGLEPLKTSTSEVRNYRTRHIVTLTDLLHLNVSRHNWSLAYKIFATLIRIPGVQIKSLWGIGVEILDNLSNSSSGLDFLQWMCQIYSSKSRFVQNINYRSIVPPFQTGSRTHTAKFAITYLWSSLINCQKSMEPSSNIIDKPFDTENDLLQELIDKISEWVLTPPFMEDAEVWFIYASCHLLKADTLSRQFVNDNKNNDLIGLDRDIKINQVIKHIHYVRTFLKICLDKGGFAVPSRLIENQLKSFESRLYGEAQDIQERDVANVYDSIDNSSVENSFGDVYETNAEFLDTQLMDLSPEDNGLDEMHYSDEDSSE
# [2] = biological target: CF with Rrn7 Δα4a (Saccharomyces cerevisiae, UniProt P32786;P40992;Q04712 1-894;1-208+221-514;1-507, internal_change); assay: as above; settings: protein: recombinant; tags: His (Ni-NTA purified); copies: 1;1;1; label: NTS -3 Atto647N; TS -5 Cy3; blunt
# Sequence of CF with Rrn7 Δα4a (P32786 whole entry, stated change not applied, chain 1 of 3): as the sequence (P32786 whole entry, stated change not applied, chain 1 of 3) above
# Sequence of CF with Rrn7 Δα4a (P40992 other isoform, or with tags, fused parts or gaps | mutant, chain 2 of 3): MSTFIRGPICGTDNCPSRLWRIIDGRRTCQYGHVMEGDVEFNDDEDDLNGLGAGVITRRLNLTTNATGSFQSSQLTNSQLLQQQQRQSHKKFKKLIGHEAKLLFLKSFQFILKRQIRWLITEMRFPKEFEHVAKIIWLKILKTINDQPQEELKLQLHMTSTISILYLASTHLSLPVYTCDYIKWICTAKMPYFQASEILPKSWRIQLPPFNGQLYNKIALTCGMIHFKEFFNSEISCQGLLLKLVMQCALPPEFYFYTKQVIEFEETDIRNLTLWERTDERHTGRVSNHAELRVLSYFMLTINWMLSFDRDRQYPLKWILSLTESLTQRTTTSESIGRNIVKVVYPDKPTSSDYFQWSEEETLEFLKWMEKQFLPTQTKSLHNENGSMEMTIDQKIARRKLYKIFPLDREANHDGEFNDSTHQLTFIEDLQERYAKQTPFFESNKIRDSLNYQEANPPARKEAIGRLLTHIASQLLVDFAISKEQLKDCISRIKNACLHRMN
# Sequence of CF with Rrn7 Δα4a (Q04712 whole entry, stated change not applied, chain 3 of 3): as the sequence (Q04712 whole entry, stated change not applied, chain 3 of 3) above
# [3] = biological target: RNA polymerase I;Rrn3;Core factor (CF) wild type: Rrn6/Rrn7/Rrn11;UAF … (Saccharomyces cerevisiae;Saccharomyces …, UniProt P10964;P22138;P07703;P46669;P50106;P20434;P20435;P28000;P20436;P32529;P22139;P40 …, |||||); assay: size exclusion chromatography; complete early PIC, stable throughout SEC; EMSA: 20 mM HEPES/KOH pH 7.8, 10% glycerol, 200 mM KCl, 1 mM MgCl2, 0.1 mg/ml BSA, 1 mM DTT, 30 min, temperature not stated; 6% native gel, 0.5x TBE
binder,measurement,setting,value
B1,binding result,[1],binds
same,binding result,[2],binds
B2,binding result,[3],binds
